Results on 14 molecules are retold here after patent publication US20200079833A1 (AstraZeneca / MedImmune, published 2020).

Starred links: 1 amine or outer side, 2 acyl side, 3 side chain; linkers in the order of their positions; H or OH if unused. Non-standard residues stand in square brackets, D forms with d. Groups on a side chain read outwards from the residue. Primed or numbered codes have the meaning given here. No end group written: not given here. *: point of attachment. Dodecanoyl(12-OPh(4-COOH)) = O=C(O)c1ccc(OCCCCCCCCCCCC(=O)*)cc1; γGlu = O=C(O)[C@H](CCC(=O)[*:2])N[*:1]; Stearoyl = CCCCCCCCCCCCCCCCCC(=O)*; αMeF = C[C@](N)(Cc1ccccc1)C(=O)O; αMeK = C[C@](N)(CCCCN)C(=O)O; Lauroyl = CCCCCCCCCCCC(=O)*; αMeS = C[C@](N)(CO)C(=O)O; PEG2′ = not defined here; Aib = CC(C)(N)C(=O)O; Ahx = NCCCCCC(=O)O

The labels stand for the following.
T1: GLP-1R (INS1e assay) (UniProt P32301 22-463, limits assumed)
T1 sequence (looked up): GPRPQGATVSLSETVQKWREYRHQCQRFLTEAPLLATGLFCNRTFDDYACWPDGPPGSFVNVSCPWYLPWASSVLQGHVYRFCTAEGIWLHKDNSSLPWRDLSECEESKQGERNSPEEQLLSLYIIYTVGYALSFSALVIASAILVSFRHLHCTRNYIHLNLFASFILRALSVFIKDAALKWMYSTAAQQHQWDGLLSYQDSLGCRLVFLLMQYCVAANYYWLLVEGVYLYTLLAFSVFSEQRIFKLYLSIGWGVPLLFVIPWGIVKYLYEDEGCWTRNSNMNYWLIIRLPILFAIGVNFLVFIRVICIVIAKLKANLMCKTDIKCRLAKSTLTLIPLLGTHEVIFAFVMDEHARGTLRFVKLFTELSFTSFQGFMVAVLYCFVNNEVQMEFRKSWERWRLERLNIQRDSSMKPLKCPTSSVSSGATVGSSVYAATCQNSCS

B1: SEQ ID NO 115 (peptide)
peptide: H[Aib]EGS[αMeF]TSDV[αMeS]S[αMeF]K([PEG2′-PEG2′-γGlu-Stearoyl])EGEAA[αMeK]E[αMeF]IA[αMeF]VV[αMeK]GG-NH2
B2: SEQ ID NO 143 (peptide)
peptide: H[Aib]EGS[αMeF]TSDV[αMeS]S[αMeF]LEGEAAK([PEG2′-Dodecanoyl(12-OPh(4-COOH))])E[αMeF]IA[αMeF]VV[αMeK]GG-NH2
B3: SEQ ID NO 140 (peptide)
peptide: H[Aib]EGS[αMeF]TSDV[αMeS]S[αMeF]LEGEAAK([Ahx-Dodecanoyl(12-OPh(4-COOH))])E[αMeF]IA[αMeF]VV[αMeK]GG-NH2
modifications: N-terminus assumed
SMILES: CC[C@H](C)[C@H](NC(=O)[C@](C)(Cc1ccccc1)NC(=O)[C@H](CCC(=O)O)NC(=O)[C@H](CCCCNC(=O)CCCCCNC(=O)CCCCCCCCCCCOc1ccc(C(=O)O)cc1)NC(=O)[C@H](C)NC(=O)[C@H](C)NC(=O)[C@H](CCC(=O)O)NC(=O)CNC(=O)[C@H](CCC(=O)O)NC(=O)[C@H](CC(C)C)NC(=O)[C@](C)(Cc1ccccc1)NC(=O)[C@H](CO)NC(=O)[C@](C)(CO)NC(=O)[C@@H](NC(=O)[C@H](CC(=O)O)NC(=O)[C@H](CO)NC(=O)[C@@H](NC(=O)[C@](C)(Cc1ccccc1)NC(=O)[C@H](CO)NC(=O)CNC(=O)[C@H](CCC(=O)O)NC(=O)C(C)(C)NC(=O)[C@@H](N)Cc1c[nH]cn1)[C@@H](C)O)C(C)C)C(=O)N[C@@H](C)C(=O)N[C@@](C)(Cc1ccccc1)C(=O)N[C@H](C(=O)N[C@H](C(=O)N[C@@](C)(CCCCN)C(=O)NCC(=O)NCC(N)=O)C(C)C)C(C)C
B4: SEQ ID NO 136 (peptide)
peptide: H[Aib]EGS[αMeF]TSDV[αMeS]S[αMeF]LEGEAAK([PEG2′-PEG2′-PEG2′-Lauroyl])E[αMeF]IA[αMeF]VV[αMeK]GG-NH2
B5: SEQ ID NO 117 (peptide)
peptide: H[Aib]EGS[αMeF]TSDV[αMeS]K([PEG2′-PEG2′-γGlu-Stearoyl])[αMeF]LEGEAA[αMeK]E[αMeF]IA[αMeF]VV[αMeK]GG-NH2
B6: SEQ ID NO 119 (peptide)
peptide: H[Aib]EGS[αMeF]TSDK([PEG2′-PEG2′-γGlu-Stearoyl])[αMeS]S[αMeF]LEGEAA[αMeK]E[αMeF]IA[αMeF]VV[αMeK]GG-NH2
B7: SEQ ID NO 154 (peptide)
peptide: H[Aib]EGS[αMeF]TSDV[αMeS]S[αMeF]LEGEAAK([PEG2′-PEG2′-PEG2′-Stearoyl])E[αMeF]IA[αMeF]VV[αMeK]GG-NH2
B8: SEQ ID NO 153 (peptide)
peptide: H[Aib]EGS[αMeF]TSDV[αMeS]S[αMeF]LEGEAAK([PEG2′-PEG2′-Stearoyl])E[αMeF]IA[αMeF]VV[αMeK]GG-NH2
B9: SEQ ID NO 116 (peptide)
peptide: H[Aib]EGS[αMeF]TSDV[αMeS]SK([PEG2′-PEG2′-γGlu-Stearoyl])LEGEAA[αMeK]E[αMeF]IA[αMeF]VV[αMeK]GG-NH2
B10: SEQ ID NO 132 (peptide)
peptide: H[Aib]EGS[αMeF]TSDV[αMeS]S[αMeF]LEGEAAK([Ahx-Ahx-Lauroyl])E[αMeF]IA[αMeF]VV[αMeK]GG-NH2
modifications: N-terminus assumed
SMILES: CCCCCCCCCCCC(=O)NCCCCCC(=O)NCCCCCC(=O)NCCCC[C@H](NC(=O)[C@H](C)NC(=O)[C@H](C)NC(=O)[C@H](CCC(=O)O)NC(=O)CNC(=O)[C@H](CCC(=O)O)NC(=O)[C@H](CC(C)C)NC(=O)[C@](C)(Cc1ccccc1)NC(=O)[C@H](CO)NC(=O)[C@](C)(CO)NC(=O)[C@@H](NC(=O)[C@H](CC(=O)O)NC(=O)[C@H](CO)NC(=O)[C@@H](NC(=O)[C@](C)(Cc1ccccc1)NC(=O)[C@H](CO)NC(=O)CNC(=O)[C@H](CCC(=O)O)NC(=O)C(C)(C)NC(=O)[C@@H](N)Cc1c[nH]cn1)[C@@H](C)O)C(C)C)C(=O)N[C@@H](CCC(=O)O)C(=O)N[C@@](C)(Cc1ccccc1)C(=O)N[C@H](C(=O)N[C@@H](C)C(=O)N[C@@](C)(Cc1ccccc1)C(=O)N[C@H](C(=O)N[C@H](C(=O)N[C@@](C)(CCCCN)C(=O)NCC(=O)NCC(N)=O)C(C)C)C(C)C)[C@@H](C)CC
B11: SEQ ID NO 135 (peptide)
peptide: H[Aib]EGS[αMeF]TSDV[αMeS]S[αMeF]LEGEAAK([PEG2′-PEG2′-Lauroyl])E[αMeF]IA[αMeF]VV[αMeK]GG-NH2
B12: SEQ ID NO 141 (peptide)
peptide: H[Aib]EGS[αMeF]TSDV[αMeS]S[αMeF]LEGEAAK([Ahx-Ahx-Dodecanoyl(12-OPh(4-COOH))])E[αMeF]IA[αMeF]VV[αMeK]GG-NH2
modifications: N-terminus assumed
SMILES: CC[C@H](C)[C@H](NC(=O)[C@](C)(Cc1ccccc1)NC(=O)[C@H](CCC(=O)O)NC(=O)[C@H](CCCCNC(=O)CCCCCNC(=O)CCCCCNC(=O)CCCCCCCCCCCOc1ccc(C(=O)O)cc1)NC(=O)[C@H](C)NC(=O)[C@H](C)NC(=O)[C@H](CCC(=O)O)NC(=O)CNC(=O)[C@H](CCC(=O)O)NC(=O)[C@H](CC(C)C)NC(=O)[C@](C)(Cc1ccccc1)NC(=O)[C@H](CO)NC(=O)[C@](C)(CO)NC(=O)[C@@H](NC(=O)[C@H](CC(=O)O)NC(=O)[C@H](CO)NC(=O)[C@@H](NC(=O)[C@](C)(Cc1ccccc1)NC(=O)[C@H](CO)NC(=O)CNC(=O)[C@H](CCC(=O)O)NC(=O)C(C)(C)NC(=O)[C@@H](N)Cc1c[nH]cn1)[C@@H](C)O)C(C)C)C(=O)N[C@@H](C)C(=O)N[C@@](C)(Cc1ccccc1)C(=O)N[C@H](C(=O)N[C@H](C(=O)N[C@@](C)(CCCCN)C(=O)NCC(=O)NCC(N)=O)C(C)C)C(C)C
B13: SEQ ID NO 134 (peptide)
peptide: H[Aib]EGS[αMeF]TSDV[αMeS]S[αMeF]LEGEAAK([PEG2′-Lauroyl])E[αMeF]IA[αMeF]VV[αMeK]GG-NH2
B14: SEQ ID NO 137 (peptide)
peptide: H[Aib]EGS[αMeF]TSDV[αMeS]S[αMeF]LEGEAAK([γGlu-Dodecanoyl(12-OPh(4-COOH))])E[αMeF]IA[αMeF]VV[αMeK]GG-NH2
modifications: N-terminus assumed
SMILES: CC[C@H](C)[C@H](NC(=O)[C@](C)(Cc1ccccc1)NC(=O)[C@H](CCC(=O)O)NC(=O)[C@H](CCCCNC(=O)CC[C@H](NC(=O)CCCCCCCCCCCOc1ccc(C(=O)O)cc1)C(=O)O)NC(=O)[C@H](C)NC(=O)[C@H](C)NC(=O)[C@H](CCC(=O)O)NC(=O)CNC(=O)[C@H](CCC(=O)O)NC(=O)[C@H](CC(C)C)NC(=O)[C@](C)(Cc1ccccc1)NC(=O)[C@H](CO)NC(=O)[C@](C)(CO)NC(=O)[C@@H](NC(=O)[C@H](CC(=O)O)NC(=O)[C@H](CO)NC(=O)[C@@H](NC(=O)[C@](C)(Cc1ccccc1)NC(=O)[C@H](CO)NC(=O)CNC(=O)[C@H](CCC(=O)O)NC(=O)C(C)(C)NC(=O)[C@@H](N)Cc1c[nH]cn1)[C@@H](C)O)C(C)C)C(=O)N[C@@H](C)C(=O)N[C@@](C)(Cc1ccccc1)C(=O)N[C@H](C(=O)N[C@H](C(=O)N[C@@](C)(CCCCN)C(=O)NCC(=O)NCC(N)=O)C(C)C)C(C)C

In this test the target is T1, GLP-1R (INS1e assay). Description: cell-based or functional assay.
Turning to B1, the “INS1e assay EC50 GLP-1 R n1” value turned out to be 0.593 nM, the “INS1e assay EC50 GLP-1 R n2” value is 0.494 nM and the “INS1e assay EC50 Mean pM GLP-1R” value was 544 pM.

On to B2, for which the “INS1e assay EC50 GLP-1 R n1” value came out at 0.0451 nM, the “INS1e assay EC50 GLP-1 R n2” value was 0.0227 nM and the “INS1e assay EC50 Mean pM GLP-1R” value was found to be 34 pM.

In the case of B3, the “INS1e assay EC50 GLP-1 R n1” value stood at 0.0432 nM, the “INS1e assay EC50 GLP-1 R n2” value was determined as 0.0167 nM and the “INS1e assay EC50 Mean pM GLP-1R” value came out at 30 pM.

In the case of B4, the “INS1e assay EC50 GLP-1 R n1” value was 0.0526 nM, the “INS1e assay EC50 GLP-1 R n2” value came out at 0.0215 nM and the “INS1e assay EC50 Mean pM GLP-1R” value was determined as 37 pM.

In the case of B5, the “INS1e assay EC50 GLP-1 R n1” value amounted to 0.765 nM, the “INS1e assay EC50 GLP-1 R n2” value was found to be 1.67 nM and the “INS1e assay EC50 Mean pM GLP-1R” value turned out to be 1220 pM.

Take B6: the “INS1e assay EC50 GLP-1 R n1” value stood at 2.71 nM, the “INS1e assay EC50 GLP-1 R n2” value was found to be 1.45 nM and the “INS1e assay EC50 Mean pM GLP-1R” value amounted to 2080 pM.

Regarding B7, the “INS1e assay EC50 GLP-1 R n1” value was 0.0323 nM, the “INS1e assay EC50 GLP-1 R n2” value was determined as 0.0171 nM and the “INS1e assay EC50 Mean pM GLP-1R” value came out at 25 pM.

As for B8, the “INS1e assay EC50 GLP-1 R n1” value worked out at 0.055 nM, the “INS1e assay EC50 GLP-1 R n2” value is 0.0612 nM and the “INS1e assay EC50 Mean pM GLP-1R” value was 58 pM.

B9: the “INS1e assay EC50 GLP-1 R n1” value was found to be 1.61 nM, the “INS1e assay EC50 GLP-1 R n2” value amounted to 0.61 nM and the “INS1e assay EC50 Mean pM GLP-1R” value was 1110 pM.

B10: the “INS1e assay EC50 GLP-1 R n1” value is 0.129 nM, the “INS1e assay EC50 GLP-1 R n2” value was 0.115 nM and the “INS1e assay EC50 Mean pM GLP-1R” value is 122 pM.

As for B11, the “INS1e assay EC50 GLP-1 R n1” value is 0.0986 nM, the “INS1e assay EC50 GLP-1 R n2” value amounted to 0.0593 nM and the “INS1e assay EC50 Mean pM GLP-1R” value worked out at 79 pM.

On to B12, for which the “INS1e assay EC50 GLP-1 R n1” value turned out to be 0.0447 nM, the “INS1e assay EC50 GLP-1 R n2” value was determined as 0.0367 nM and the “INS1e assay EC50 Mean pM GLP-1R” value was found to be 41 pM.

In the case of B13, the “INS1e assay EC50 GLP-1 R n1” value came to 0.168 nM, the “INS1e assay EC50 GLP-1 R n2” value came out at 0.0776 nM and the “INS1e assay EC50 Mean pM GLP-1R” value turned out to be 123 pM.

Turning to B14, the “INS1e assay EC50 GLP-1 R n1” value worked out at 0.0637 nM, the “INS1e assay EC50 GLP-1 R n2” value came out at 0.0362 nM and the “INS1e assay EC50 Mean pM GLP-1R” value worked out at 50 pM.
